Test results: paper PMC3288397 (2012)

Key:
[1] = target: Rv0535 (M. tuberculosis methylthioadenosine phosphorylase, MTAP) (Mycobacterium tuberculosis, UniProt O06401); test: HPLC cleavage assay at […]; type: biochemical
[2] = tested on: CSC[C@H]1O[C@@H](n2cnc3c(N)ncnc32)[C@H](O)[C@@H]1O; test: purified protein; conditions: phosphate
[3] = tested on: Nc1ncnc2c1ncn2[C@@H]1O[C@H](CO)[C@@H](O)[C@H]1O; test: purified protein; conditions: phosphate

Chain of Rv0535 (M. tuberculosis methylthioadenosine phosphorylase, MTAP) (O06401 whole entry): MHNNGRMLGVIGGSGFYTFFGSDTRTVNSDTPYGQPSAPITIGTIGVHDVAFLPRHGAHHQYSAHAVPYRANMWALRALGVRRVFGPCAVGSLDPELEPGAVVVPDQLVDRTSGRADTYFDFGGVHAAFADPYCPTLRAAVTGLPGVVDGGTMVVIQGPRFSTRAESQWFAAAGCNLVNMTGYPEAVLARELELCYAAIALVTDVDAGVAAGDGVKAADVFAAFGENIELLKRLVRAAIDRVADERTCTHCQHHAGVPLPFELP

Compound	Enzyme Activity (nmoles mg^-1 hr^-1) ^a [1] [nmol/mg/h]	kcat [2] [s⁻¹]	Km [3] [µM]
Nc1ncnc2c1ncn2[C@@H]1O[C@H](CSCC[C@H](N)C(=O)O)[C@@H](O)[C@H]1O [S-Adenosyl-L-homocysteine]	800 ± 100		
Rv0535 (M. tuberculosis methylthioadenosine phosphorylase, MTAP) (Mycobacterium tuberculosis H37Rv)		0.4 ± 0.2	1700 ± 200
